The target of test [1] is T1, human 2Ig-B7H3 (B7H3-2Ig-His) (human, UniProt Q5ZPR3 29-466).
T1 construct: Recombinant His-tagged protein immobilised on a CM5 chip; also called 21g-B7H3; B7H3-21g-His; not shown: His tag
T1 sequence: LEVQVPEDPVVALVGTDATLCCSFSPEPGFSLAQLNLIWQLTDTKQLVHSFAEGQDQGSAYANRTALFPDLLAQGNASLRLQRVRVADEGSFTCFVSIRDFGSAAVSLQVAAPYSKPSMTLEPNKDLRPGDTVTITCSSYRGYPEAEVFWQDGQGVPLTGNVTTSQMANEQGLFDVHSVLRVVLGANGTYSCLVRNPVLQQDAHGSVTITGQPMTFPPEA
In words: SPR, Biacore T200, 2Ig-B7H3-His on CM5 chip, 1:1 fit; * beyond fitting limits; unconjugated 8H9, lot S219, Table 5 run. In general terms: SPR reads the build-up and loss of mass on a sensor chip optically.

Test [2] deals with T1, human 2Ig-B7H3 (B7H3-2Ig-His). Description: SPR, Biacore T200, 2Ig-B7H3-His on CM5 chip, 1:1 fit; unconjugated 8H9, lot S219, Table 5 run. As to the method: (§1) Both human B7H3 41g and 21g proteins were dissolved in PBS (Phosphate-Buffered Saline) to make 0.1 mg/ml stock solution and stored in −80° C. B7-H3 proteins were immobilized onto the CM5 sensor chip using Amine Coupling Kit. Both proteins were diluted to 10 ug/ml with 10 mM Sodium acetate, pH 5.0. […] A blank immobilized surface was used as a control
(§2) Binding Assays: [0143] 1. Antibodies were diluted in HBS-EP buffer (10 mM HEPES, 150 mM NaCl, 3 mM EDTA, 0.05% Surfactant P20, pH 7.4) at varying concentrations (25-50-100-200-400 nM) prior to analysis. […] 2. Samples (60 ul) were injected over the sensor surface at a flow rate of 30 ul/min over 2 min. [0145] 3. Following completion of the association phase, dissociation was monitored in HBS-EP buffer for 10 min at the same flow rate. […] 4. At the end of each cycle, the surface was regenerated using 10 mM NaOH at a flow rate of 50 ul/min over 2×15 sec.

For the next test, the target named is T2, recombinant monkey B7-H3 (monkey).
T2 chain: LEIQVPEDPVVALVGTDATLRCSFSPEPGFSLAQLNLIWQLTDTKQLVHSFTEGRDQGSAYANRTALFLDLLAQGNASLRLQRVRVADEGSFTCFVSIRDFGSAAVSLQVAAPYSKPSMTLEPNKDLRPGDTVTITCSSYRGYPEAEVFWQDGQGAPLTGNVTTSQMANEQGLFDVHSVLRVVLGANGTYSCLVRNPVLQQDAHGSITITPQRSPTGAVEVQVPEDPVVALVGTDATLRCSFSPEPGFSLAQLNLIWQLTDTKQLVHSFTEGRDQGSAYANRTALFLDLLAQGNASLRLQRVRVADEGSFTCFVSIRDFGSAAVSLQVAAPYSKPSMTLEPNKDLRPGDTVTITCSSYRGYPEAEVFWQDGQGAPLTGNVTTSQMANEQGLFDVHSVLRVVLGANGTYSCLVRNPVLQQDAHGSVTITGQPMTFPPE
Description: SPR, triplicate.

Test [3] deals with T1, human 2Ig-B7H3 (B7H3-2Ig-His). Description: SPR, Biacore T200, 2Ig-B7H3-His on CM5 chip, 1:1 fit; * beyond fitting limits. As to the method: as §1, §2
Test [4] has as its target recombinant human B7-H3 (Example 3) (human) (UniProt Q5ZPR3). Description: SPR, triplicate.

B1: 8H9 antibody comprising a light chain according to SEQ ID No.: 2 and heavy chain according to SEQ ID No.: 1 (antibody, mouse IgG1, kappa, V domains shown)
VH: QVQLQQSGAELVKPGASVKLSCKASGYTFTNYDINWVRQRPEQGLEWIGWIFPGDGSTQYNEKFKGKATLTTDTSSSTAYMQLSRLTSEDSAVYFCARQTTATWFAYWGQGTLVTVSA
VL: DIVMTQSPATLSVTPGDRVSLSCRASQSISDYLHWYQQKSHESPRLLIKYASQSISGIPSRFSGSGSGSDFTLSINSVEPEDVGVYYCQNGHSFPLTFGAGTKLELKR
notes: Unconjugated mouse IgG1 mAb; also called m8H9; murine 8H9
Consider B1, for which the off-rate constant (koff) is less than 1e-05 s⁻¹ in test [1], 1e-05 s⁻¹ with recombinant monkey B7-H3, 1.1e-07 s⁻¹ in test [3] and 1e-05 s⁻¹ in test [4]. Also, the values for the Kd (in test [2]; with recombinant monkey B7-H3; in test [4]) were less than 212 pM, 1.6 pM and 1.1 pM, respectively. The kon with recombinant monkey B7-H3 was determined as 6.5e+06 M⁻¹ s⁻¹; in test [4], 8.9e+06 M⁻¹ s⁻¹.

By koff is commonly meant the first-order rate constant of dissociation. The Kd is the free concentration of one partner at which half of the binding sites on the other are occupied at equilibrium, for simple one-to-one binding. The term kon denotes the second-order rate constant of association.

Values taken from patent US20230293738A1 (Y MABS THERAPEUTICS, published 2023).
